According to PMC8326117 (2021):

Target: SARS-CoV-2 S-protein RBD (SARS-CoV-2, UniProt P0DTC2)
Test: SPR

KKKKKKDKFNHEAEDLFY [S-protein neutralizing peptide AYn1]
koff: 0.001 s⁻¹
